Measured values published in article PMC4302019.

Target: SibV (predicted extradiol dioxygenase of sibiromycin biosynthesis), holo form reconstituted with Fe2+ (Streptosporangium sibiricum)
Assay: SEC

“SibV (predicted extradiol dioxygenase of sibiromycin biosynthesis), holo form reconstituted with Fe2+ (enzyme)” was tested, and the stoichiometry N was 2.
